In the experiment the target is Mus musculus XRCC2 full length (Mus musculus) (UniProt Q9CX47). Kind of experiment: two-hybrid; same mated yeast; liquid β-galactosidase assay with ONPG as substrate, in triplicate, constructs in both the GAL4 activating and DNA binding domains.
Chain of UniProt Q9CX47 (Q9CX47 whole entry, the tested form may be a part): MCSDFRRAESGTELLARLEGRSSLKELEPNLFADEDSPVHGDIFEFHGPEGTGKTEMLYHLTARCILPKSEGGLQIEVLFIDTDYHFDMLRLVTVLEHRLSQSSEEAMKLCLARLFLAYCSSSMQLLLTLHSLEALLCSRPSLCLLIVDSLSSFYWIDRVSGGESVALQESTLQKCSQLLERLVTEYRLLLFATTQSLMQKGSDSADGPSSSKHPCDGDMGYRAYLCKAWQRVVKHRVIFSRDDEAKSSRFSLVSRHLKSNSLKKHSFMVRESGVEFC

“Mus musculus RAD51DΔ8 (splice variant product, exon 8 excluded) (from UniProt O55230 4-223) (natural protein)” displayed a percent of the level of full-length RAD51D (β-galactosidase activity) of 36%.

For the origin of these results see article PMC2667185.
